From PMC7295619

Biological target: Porcine circovirus type 3 (PCV3) capsid protein (porcine circovirus type 3)
Assay: cryo-EM structure; in vitro assembled full-length PCV3-VLP, 1 mg/ml, Titan Krios 300 kV, EMAN2 reconstruction with icosahedral symmetry applied, ~8.5 Å

“Porcine circovirus type 3 (PCV3) capsid protein (natural protein)” gave a stoichiometry N of 60.
